From patent US20110263454A1, “Methods of Identifying Functional Characteristics of Promoters, Transcription Modifying Proteins and Transcription Modulating Agents” (Salk Institute for Biological Studies, priority 2008, published 2011)

Experiments:
mAgrp promoter = assay: NHR-promoter luciferase screen, mAgrp promoter; format: cell-based, mouse; conditions: for Results of assays of transcription factor (+/- ligand) with mAgrp: Table 6d, luciferase activity relative to control (control = 1.00); for Luc. act., normalized to lacZ / Normalized Luc. act., normalized to control: mAgrp promoter, HR component with or without ligand; for Normalized Luc. act., normalized to control: relative to control
Outline: (§1)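 CV-1 cells were co-transfected with 50 ng NHR (homodimer or NHR/RXR heterodimer), 100 ng promoter-luciferase construct and 50 ng LacZ. Luciferase was normalized to LacZ and to a no-NHR/no-ligand control.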

mPer1 promoter = assay: NHR-promoter luciferase screen, mPer1 promoter; format: cell-based, mouse; conditions: for Luc. act., normalized to lacZ / Normalized Luc. act., normalized to control: Per1 promoter reporter, co-transfected HR, with or without its ligand; for Normalized Luc. act., normalized to control: relative to control; for luciferase activity normalized to lacZ activity and to a control, mPer1: mPer1 promoter-luciferase, CV-1 cells, NHR +/- ligand, control = 1.00
Outline: as §1

hCYP3A4 promoter = assay: NHR-promoter luciferase screen, hCYP3A4 promoter; format: cell-based, human; conditions: for Luc. act., normalized to lacZ / Normalized Luc. act., normalized to control: CYP3A4 promoter, HR/ligand component; for hCYP3A4 promoter reporter activity: transcription factor +/- ligand, control = 1.00
Outline: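 CV-1 cells co-transfected with NHR homodimer or NHR/RXR heterodimer (pcDNA3.1, C-terminal V5H6 tag), promoter-luciferase construct and LacZ transfection control. Orphan receptors screened without ligand. Luciferase normalized to LacZ and to no-NHR/no-ligand control.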

hPPARg1 promoter = assay: NHR-promoter luciferase screen, hPPARg1 promoter; format: cell-based, human; conditions: for Luc. act., normalized to lacZ / Normalized Luc. act., normalized to control: PPARG1 promoter, hormone receptor with or without its ligand; for Normalized Luc. act., normalized to control: relative to control; for Results of assays of transcription factor (+/- ligand) with hPPARg1: Table 6d, luciferase activity relative to control (control = 1.00)
Outline: as §1

hCAR promoter = assay: NHR-promoter luciferase screen, hCAR promoter; format: cell-based, human; conditions: for luciferase activity normalized to lacZ activity and to a control, hCAR: hCAR promoter-luciferase, CV-1 cells, NHR +/- ligand, control = 1.00; for Luc. act., normalized to lacZ / Normalized Luc. act., normalized to control: hCAR promoter, HR/ligand component
Outline: as §1

mUCP1 promoter = assay: NHR-promoter luciferase screen, mUCP1 promoter; format: cell-based, mouse; conditions: for Luc. act., normalized to lacZ / Normalized Luc. act., normalized to control: mUCP1 promoter reporter, co-transfected HR, with or without its ligand; for Normalized Luc. act., normalized to control: relative to control; for luciferase activity normalized to lacZ activity and to a control, mUCP!: mUCP! promoter-luciferase, CV-1 cells, NHR +/- ligand, control = 1.00
Outline: as §1

Row | Molecule | Results of assays of transcription factor (+/- ligand) with mAgrp (mAgrp promoter) | Luc. act., normalized to lacZ (mAgrp promoter) | Normalized Luc. act., normalized to control (mAgrp promoter) | Luc. act., normalized to lacZ (mPer1 promoter) | Normalized Luc. act., normalized to control (mPer1 promoter) | luciferase activity normalized to lacZ activity and to a control, mPer1 (mPer1 promoter) | Luc. act., normalized to lacZ (hCYP3A4 promoter) | Normalized Luc. act., normalized to control (hCYP3A4 promoter) | hCYP3A4 promoter reporter activity (hCYP3A4 promoter) | Luc. act., normalized to lacZ (hPPARg1 promoter) | Normalized Luc. act., normalized to control (hPPARg1 promoter) | Results of assays of transcription factor (+/- ligand) with hPPARg1 (hPPARg1 promoter) | luciferase activity normalized to lacZ activity and to a control, hCAR (hCAR promoter) | Luc. act., normalized to lacZ (hCAR promoter) | Normalized Luc. act., normalized to control (hCAR promoter) | Luc. act., normalized to lacZ (mUCP1 promoter) | Normalized Luc. act., normalized to control (mUCP1 promoter) | luciferase activity normalized to lacZ activity and to a control, mUCP! (mUCP1 promoter)
1 | SHP: Small Heterodimer Partner (NR0B2), cDNA driver (protein, UniProt Q15466 1-257, looked up) Nuclear receptor subfamily 0 …: MSTSQPGACPCQGAASRPAILYALLSSSLKAVPRPRSRCLCRQHRPVQLCAPHRTCREALDVLAKTVAFLRNLPSFWQLPPQDQRRLLQGCWGPLFLLGLAQDAVTFEVAEAPVPSILKKILLEEPSSSGGSGQLPDRPQPSLAAVQWLQCCLESFWSLELSPKEYACLKGTILFNPDVPGLQAASHIGHLQQEAHWVLCEVLEPWCPAAQGRLTRVLLTASTLKSIPTSLLGDLFFRPIIGDVDIAGLLGDMLLLR | 1.12 | 44.6 | 1.1 | 130.3 | 0.9 | 0.90 | 4.6 | 1.0 | 1.04 | 67.9 | 1.0 | 0.99 | 0.99 | 31.3 | 1.0 | 4.1 | 0.9 | 0.93
2 | GCNF: Germ Cell Nuclear Factor (NR6A1, GCNF1), cDNA driver (protein, UniProt Q15406 1-480, looked up) Nuclear receptor subfamily 6 …: MERDEPPPSGGGGGGGSAGFLEPPAALPPPPRNGFCQDELAELDPGTISVSDDRAEQRTCLICGDRATGLHYGIISCEGCKGFFKRSICNKRVYRCSRDKNCVMSRKQRNRCQYCRLLKCLQMGMNRKAIREDGMPGGRNKSIGPVQISEEEIERIMSGQEFEEEANHWSNHGDSDHSSPGNRASESNQPSPGSTLSSSRSVELNGFMAFREQYMGMSVPPHYQYIPHLFSYSGHSPLLPQQARSLDPQSYSLIHQLLSAEDLEPLGTPMLIEDGYAVTQAELFALLCRLADELLFRQIAWIKKLPFFCELSIKDYTCLLSSTWQELILLSSLTVYSKQIFGELADVTAKYSPSDEELHRFSDEGMEVIERLIYLYHKFHQLKVSNEEYACMKAINFLNQDIRGLTSASQLEQLNKRYWYICQDFTEYKYTHQPNRFPDLMMCLPEIRYIAGKMVNVPLEQLPLLFKVVLHSCKTSVGKE | 1.42 | 56.5 | 1.4 | 151.9 | 1.1 | 1.06 | 4.5 | 1.0 | 1.02 | 88.6 | 1.3 | 1.29 | 0.93 | 29.2 | 0.9 | 3.8 | 0.8 | 0.85
3 | NR4a3: NR4a3 (NR4A3; NOR1), nuclear hormone receptor cDNA driver (protein, UniProt Q92570 1-626, looked up) Nuclear receptor subfamily 4 …: MPCVQAQYSPSPPGSSYAAQTYSSEYTTEIMNPDYTKLTMDLGSTEITATATTSLPSISTFVEGYSSNYELKPSCVYQMQRPLIKVEEGRAPSYHHHHHHHHHHHHHHQQQHQQPSIPPASSPEDEVLPSTSMYFKQSPPSTPTTPAFPPQAGALWDEALPSAPGCIAPGPLLDPPMKAVPTVAGARFPLFHFKPSPPHPPAPSPAGGHHLGYDPTAAAALSLPLGAAAAAGSQAAALESHPYGLPLAKRAAPLAFPPLGLTPSPTASSLLGESPSLPSPPSRSSSSGEGTCAVCGDNAACQHYGVRTCEGCKGFFKRTVQKNAKYVCLANKNCPVDKRRRNRCQYCRFQKCLSVGMVKEVVRTDSLKGRRGRLPSKPKSPLQQEPSQPSPPSPPICMMNALVRALTDSTPRDLDYSRYCPTDQAAAGTDAEHVQQFYNLLTASIDVSRSWAEKIPGFTDLPKEDQTLLIESAFLELFVLRLSIRSNTAEDKFVFCNGLVLHRLQCLRGFGEWLDSIKDFSLNLQSLNLDIQALACLSALSMITERHGLKEPKRVEELCNKITSSLKDHQSKGQALEPTESKVLGALVELRKICTLGLQRIFYLKLEDLVSPPSIIDKLFLDTLPF | 0.88 | 34.7 | 0.9 | 139.6 | 1.0 | 0.97 | 4.2 | 0.9 | 0.93 | 61.0 | 0.9 | 0.88 | 0.54 | 16.9 | 0.5 | 3.8 | 0.9 | 0.86
